Data published in the supplement of paper PMC10126150.
± gives the standard deviation of the averaged measurements.

Tested on: ATP
Assay: switch fluorescence ratio, 500 uM ATP over buffer (Cy3 cluster intensity, sum of 5 cycles each) (fold (ratio)); higher = stronger signal-on switching upon ATP binding; sequences stand for … in TCGTCGGCAGCGTCAGATGTGTATAAGAGACAGTTTTTTTTTTTTTTTTTTTTTTTTT…TC
Conditions: aptamer strand: ATP DNA aptamer (quencher-CACCTGGGGGAGTATTGCGGAGGAAGG + anchor), 100 nM annealed; ATP concentration: 500 uM
Method in brief: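 Exposure to 500 uM ATP lasted 15 min at 22 °C before imaging, and a selection-buffer image was taken beforehand, for Cy3-labelled switching-strand clusters on a modified Illumina MiSeq flow-cell annealed to 100 nM quencher-labelled ATP aptamer. Five buffer/ATP cycles were run with NaOH stripping and re-annealing between them. The fluorescence ratio per cluster is summed target-cycle over summed buffer-cycle Cy3 intensity, averaged per switch-domain sequence. Clusters outside 100-1000 RFU were excluded.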

Sequence	switch fluorescence ratio
GAAAAAAATT	1.02 ± 0.024
GAAAAAGACT	1.04 ± 0.089
GAAAAATCGA	0.9882 ± 0.0056
GAAAAATTTC	0.99 ± 0.028
GAAAAGGTCA	1.04 ± 0.019
GAAAATAGTG	1.01 ± 0.029
GAAACTATTT	1.03 ± 0.05
GAAACTGGGG	1.02 ± 0.031
GAAAGAAACT	1.63 ± 0.98
GAAAGAAATG	0.9994 ± 0.003
GAAAGGGTTT	1.01 ± 0.048
GAAAGTGAGA	1.01 ± 0.056
GAAAGTGGTG	0.9921 ± 0.0055
GAAATAAAAG	0.9796 ± 0.0064
GAAATAAATA	0.9835 ± 0.0081
GAAATAATGG	1.03 ± 0.041
GAAATAGGG	0.983 ± 0.011
GAAATATGTG	0.9885 ± 0.0022
GAAATCATTA	1.016 ± 0.01
GAAATCCGAA	1.08 ± 0.058
GAAATCTTTT	1.07 ± 0.17
GAAATGAGAT	0.975 ± 0.01
GAAATGGGGT	0.977 ± 0.037
GAAATGGTAT	1 ± 0.011
GAAATTCGAG	1.01 ± 0.033

Sequence	switch fluorescence ratio
GAAATTTATA	1.05 ± 0.04
GAACAAGGAG	1.03 ± 0.077
GAACAAGGTG	1.14 ± 0.22
GAACATGGGC	1.012 ± 0.0084
GAACATTGGT	0.998 ± 0.042
GAACCGATGT	1.009 ± 0.0089
GAACCTTGAC	1.61 ± 0.14
GAACGAGAGG	1.01 ± 0.012
GAACGCGATT	3.92 ± 1.3
GAACGGAAGG	1.014 ± 0.0043
GAACGGGAAT	1.022 ± 0.00076
GAACGGGGCG	1.01 ± 0.099
GAACGGGGGG	0.9624 ± 0.0053
GAACGGTATT	1.06 ± 0.065
GAACGTCGGA	1.028 ± 0.0027
GAACGTGGCA	0.9956 ± 0.0095
GAACTAGGTT	0.9847 ± 0.0035
GAACTATTTC	1.036 ± 0.0019
GAACTCGATG	1.018 ± 0.0091
GAACTTAGAG	1.02 ± 0.03
GAACTTGATG	0.997 ± 0.036
GAAGAAAGGT	0.966 ± 0.064
GAAGAAGGTG	1.43 ± 0.018
GAAGAAGTAA	1.03 ± 0.013
GAAGAATTAA	1.0278 ± 0.00043

Sequence	switch fluorescence ratio
GAAGAGGGGT	1.01 ± 0.014
GAAGAGGGTG	1.03 ± 0.022
GAAGATGCGG	1.0002 ± 0.00028
GAAGATTATA	0.9865 ± 0.0044
GAAGCCGGAA	1.04 ± 0.021
GAAGCGGGGC	1.36 ± 0.064
GAAGCGGGGG	1.05 ± 0.02
GAAGCTGCTT	0.9908 ± 0.0073
GAAGCTTTAG	1.06 ± 0.019
GAAGGAGCAG	0.944 ± 0.029
GAAGGAGGGG	1.06 ± 0.036
GAAGGATTGT	1.02 ± 0.059
GAAGGCGGAT	1.01 ± 0.018
GAAGGCGGGA	1.03 ± 0.097
GAAGGGAGCG	0.984 ± 0.045
GAAGGGAGGT	0.987 ± 0.012
GAAGGGGCGA	0.972 ± 0.018
GAAGGGGGG	1.001 ± 0.0094
GAAGGGGGGT	0.997 ± 0.029
GAAGGGGGTT	0.973 ± 0.036
GAAGGGGTTA	1.03 ± 0.087
GAAGGGTACG	1.07 ± 0.091
GAAGGGTTAC	1.15 ± 0.15
GAAGGGTTGG	0.999 ± 0.014
GAAGGGTTTG	0.9968 ± 0.0053

Sequence	switch fluorescence ratio
GAAGGTATTT	0.9517 ± 0.0056
GAAGGTCAGT	0.971 ± 0.051
GAAGGTGGTG	0.961 ± 0.032
GAAGGTTCGT	1 ± 0.034
GAAGTAGGCG	1.03 ± 0.028
GAAGTAGGTG	1.02 ± 0.012
GAAGTAGTTT	0.98 ± 0.089
GAAGTATGCA	1.04 ± 0.031
GAAGTATGGG	0.956 ± 0.024
GAAGTATGTG	1.006 ± 0.0092
GAAGTCCTGT	0.998 ± 0.021
GAAGTGAGCA	1.01 ± 0.044
GAAGTGCGGT	0.98474 ± 0.00042
GAAGTGGTTT	0.997 ± 0.025
GAAGTGTCGG	1.005 ± 0.0057
GAAGTTAGGT	0.9981 ± 0.0087
GAAGTTATTG	0.9898 ± 0.0022
GAAGTTCGAG	0.998 ± 0.016
GAAGTTGGGT	1.01 ± 0.029
GAATAAAATG	1.04 ± 0.013
GAATACCTTT	1.02 ± 0.013
GAATAGGGTG	1.08 ± 0.039
GAATATAGTG	1.02 ± 0.011
GAATATAGTT	0.9947 ± 0.0078
GAATATGTGG	1 ± 0.013
